Source: article PMC5381662 (Cell reports, 2016)
Read-outs that look alike come from different tables or passages of the source. Values belong to the binder of their own block, whether it stands above or below them.

Key:
Assay in all cases: pull-down
Strep II-tagged UAF1 [1] = target: T1, Strep II-tagged UAF1 (UniProt Q8TAF3 1-677)
[2] = target: Strep II-tagged UAF1 K595E (UniProt Q8TAF3 1-677, K595E)
[3] = target: Strep II-tagged UAF1 K595E/H599A double mutant (UniProt Q8TAF3 1-677, K595E | H599A)
[4] = target: Strep II-tagged UAF1 H599A (UniProt Q8TAF3 1-677, H599A)
[5] = target: Strep II-tagged UAF1 K459E (UniProt Q8TAF3 1-677, K459E)
Strep II-tagged UAF1 [6] = target: T1, Strep II-tagged UAF1; remark: listed apart in the source
RAD51 = target: T2, RAD51 (UniProt Q06609 1-339)
T2 sequence (looked up): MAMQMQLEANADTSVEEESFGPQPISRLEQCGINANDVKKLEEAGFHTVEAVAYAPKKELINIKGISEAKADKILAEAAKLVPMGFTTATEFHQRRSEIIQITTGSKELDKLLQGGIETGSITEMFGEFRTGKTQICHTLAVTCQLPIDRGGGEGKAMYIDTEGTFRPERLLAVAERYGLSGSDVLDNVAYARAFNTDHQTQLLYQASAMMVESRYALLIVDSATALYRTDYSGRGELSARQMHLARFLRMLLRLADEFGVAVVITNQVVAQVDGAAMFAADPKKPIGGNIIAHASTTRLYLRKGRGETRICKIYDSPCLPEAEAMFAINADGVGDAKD

Strep II-tagged UAF1 [7] = target: T1, Strep II-tagged UAF1; remark: listed apart in the source

T1 sequence (Q8TAF3 whole entry): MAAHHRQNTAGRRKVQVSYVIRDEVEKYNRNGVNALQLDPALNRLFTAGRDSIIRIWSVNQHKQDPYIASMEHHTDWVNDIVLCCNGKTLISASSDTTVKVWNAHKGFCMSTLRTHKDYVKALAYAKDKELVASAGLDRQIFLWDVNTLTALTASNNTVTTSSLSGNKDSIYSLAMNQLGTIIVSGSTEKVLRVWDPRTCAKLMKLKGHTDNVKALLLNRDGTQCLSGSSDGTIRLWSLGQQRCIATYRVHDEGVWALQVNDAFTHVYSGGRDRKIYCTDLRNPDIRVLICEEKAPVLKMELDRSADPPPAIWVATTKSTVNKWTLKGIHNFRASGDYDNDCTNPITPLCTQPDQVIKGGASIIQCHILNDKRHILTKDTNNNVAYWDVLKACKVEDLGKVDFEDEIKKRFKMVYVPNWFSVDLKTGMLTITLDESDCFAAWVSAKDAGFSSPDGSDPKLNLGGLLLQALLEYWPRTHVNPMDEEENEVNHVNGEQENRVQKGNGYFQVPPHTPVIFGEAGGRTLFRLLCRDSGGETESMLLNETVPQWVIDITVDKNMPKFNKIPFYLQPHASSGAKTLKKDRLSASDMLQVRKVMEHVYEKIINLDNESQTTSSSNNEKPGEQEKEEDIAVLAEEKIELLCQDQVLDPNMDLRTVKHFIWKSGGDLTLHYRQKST
Sequence of Strep II-tagged UAF1 K595E (Q8TAF3 whole entry K595E): as the sequence (Q8TAF3 whole entry) above, with K595E counted along it
Sequence of Strep II-tagged UAF1 K459E (Q8TAF3 whole entry K459E): as the sequence (Q8TAF3 whole entry) above, with K459E counted along it
Sequence of Strep II-tagged UAF1 K595E/H599A double mutant (Q8TAF3 whole entry K595E/H599A): as the sequence (Q8TAF3 whole entry) above, with K595E, H599A counted along it
Sequence of Strep II-tagged UAF1 H599A (Q8TAF3 whole entry H599A): as the sequence (Q8TAF3 whole entry) above, with H599A counted along it

- binding result (Strep II-tagged UAF1 [7]): binds
B3: RAD51AP1 ΔN25 mutant (domain or fragment, UniProt Q96B01-2 26-335, looked up)
chain: VSATVPLNKKSRTAPKELKQDKPKPNLNNLRKEEIPVQEKTPKKRMALDDKLYQRDLEVALALSVKELPTVTTNVQNSQDKSIEKHGSSKIETMNKSPHISNCSVASDYLDLDKITVEDDVGGVQGKRKAASKAAAQQRKILLEGSDGDSANDTEPDFAPGEDSEDDSDFCESEDNDEDFSMRKSKVKEIKKKEVKVKSPVEKKEKKSKSKCNALVTSVDSAPAAVKSESQSLPKKVSLSSDTTRKPLEIRSPSAESKKPKWVPPAASGGSRSSSSPLVVVSVKSPNQSLRLGLSRLARVKPLHPNATST

- binding result (Strep II-tagged UAF1 [7]): binds
B4: RAD51AP1 fragment, amino acid residues 95-187 (domain or fragment, UniProt Q96B01-2 95-187, looked up)
chain: TVTTNVQNSQDKSIEKHGSSKIETMNKSPHISNCSVASDYLDLDKITVEDDVGGVQGKRKAASKAAAQQRKILLEGSDGDSANDTEPDFAPGE

- binding result (Strep II-tagged UAF1 [7]): binds
B5: RAD51AP1 1-145 fragment (domain or fragment, UniProt Q96B01-2 1-145, looked up)
chain: MVRPVRHKKPVNYSQFDHSDSDDDFVSATVPLNKKSRTAPKELKQDKPKPNLNNLRKEEIPVQEKTPKKRMALDDKLYQRDLEVALALSVKELPTVTTNVQNSQDKSIEKHGSSKIETMNKSPHISNCSVASDYLDLDKITVEDD

- binding result (Strep II-tagged UAF1 [7]): binds
B6: RAD51AP1 H329A mutant (natural protein, UniProt Q96B01-2 1-335, looked up)
chain: MVRPVRHKKPVNYSQFDHSDSDDDFVSATVPLNKKSRTAPKELKQDKPKPNLNNLRKEEIPVQEKTPKKRMALDDKLYQRDLEVALALSVKELPTVTTNVQNSQDKSIEKHGSSKIETMNKSPHISNCSVASDYLDLDKITVEDDVGGVQGKRKAASKAAAQQRKILLEGSDGDSANDTEPDFAPGEDSEDDSDFCESEDNDEDFSMRKSKVKEIKKKEVKVKSPVEKKEKKSKSKCNALVTSVDSAPAAVKSESQSLPKKVSLSSDTTRKPLEIRSPSAESKKPKWVPPAASGGSRSSSSPLVVVSVKSPNQSLRLGLSRLARVKPLAPNATST

Further lines, the binder ahead of its results:

B1: GST-tagged RAD51AP1 (natural protein, UniProt Q96B01-2 1-335, looked up)
chain: MVRPVRHKKPVNYSQFDHSDSDDDFVSATVPLNKKSRTAPKELKQDKPKPNLNNLRKEEIPVQEKTPKKRMALDDKLYQRDLEVALALSVKELPTVTTNVQNSQDKSIEKHGSSKIETMNKSPHISNCSVASDYLDLDKITVEDDVGGVQGKRKAASKAAAQQRKILLEGSDGDSANDTEPDFAPGEDSEDDSDFCESEDNDEDFSMRKSKVKEIKKKEVKVKSPVEKKEKKSKSKCNALVTSVDSAPAAVKSESQSLPKKVSLSSDTTRKPLEIRSPSAESKKPKWVPPAASGGSRSSSSPLVVVSVKSPNQSLRLGLSRLARVKPLHPNATST
- binding result (Strep II-tagged UAF1 [1]): binds
- binding result [2]: binds
- binding result [3]: binds
- binding result [4]: binds
- binding result [5]: binds

B2: RAD51AP1 (no tag named) (natural protein, UniProt Q96B01-2 1-335, looked up)
chain: MVRPVRHKKPVNYSQFDHSDSDDDFVSATVPLNKKSRTAPKELKQDKPKPNLNNLRKEEIPVQEKTPKKRMALDDKLYQRDLEVALALSVKELPTVTTNVQNSQDKSIEKHGSSKIETMNKSPHISNCSVASDYLDLDKITVEDDVGGVQGKRKAASKAAAQQRKILLEGSDGDSANDTEPDFAPGEDSEDDSDFCESEDNDEDFSMRKSKVKEIKKKEVKVKSPVEKKEKKSKSKCNALVTSVDSAPAAVKSESQSLPKKVSLSSDTTRKPLEIRSPSAESKKPKWVPPAASGGSRSSSSPLVVVSVKSPNQSLRLGLSRLARVKPLHPNATST
- binding result (Strep II-tagged UAF1 [6]): binds
- binding result (RAD51): binds
